Data published in the supplement of paper PMC5998384.

Legend:
HeLa Kyoto [1] = experiment: solubility in G1/S (NP-40 vs SDS abundance) (log2 ratio); higher = more soluble; settings: cell cycle stage: G1/S
HeLa Kyoto [2] = experiment: melting temperature (median over replicates), in situ; higher = more thermally stable
HeLa Kyoto [3] = experiment: solubility change mitosis vs G1/S (difference of NP-40 vs SDS log2 ratios) (log2 ratio difference); higher = more soluble in mitosis
HeLa Kyoto [4] = experiment: thermal stability score vs G1/S (z-score of summed log2 fold changes over temperatures); higher = more thermally stable than in G1/S
[5] = cell cycle stage: early G1 (4.5 h after nocodazole release)
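For melting temperature (median over replicates), in situ in this document: HeLa Kyoto cells synchronized by double thymidine or nocodazole block, proteins quantified by TMT10plex mass spectrometry, three independent biological replicates.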
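For solubility change mitosis vs G1/S (difference of NP-40 vs SDS log2 ratios) in this document: synchronized HeLa Kyoto cells (double thymidine block for G1/S, nocodazole release for mitosis), protein amounts in NP-40 versus SDS lysates quantified by mass spectrometry, three biological replicates.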
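For solubility in G1/S (NP-40 vs SDS abundance) in this document: HeLa Kyoto cells arrested at G1/S by double thymidine block, proteins quantified by TMT10plex mass spectrometry in mild NP-40 versus SDS extracts, three biological replicates.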
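For thermal stability score vs G1/S (z-score of summed log2 fold changes over temperatures) in this document: synchronized HeLa Kyoto cells, proteins quantified by TMT10plex mass spectrometry, three biological replicates, mitosis taken 0.5 h after nocodazole release, G1/S directly after double thymidine block.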

Sequence | solubility in G1/S (log2) (HeLa Kyoto [1]) | melting temperature (HeLa Kyoto [2]; cell cycle stage: G1/S) [°C] | melting temperature (HeLa Kyoto [2]; cell cycle stage: mitosis) [°C] | solubility change mitosis (log2) (HeLa Kyoto [3]) | thermal stability score (HeLa Kyoto [4]; [5]) | thermal stability score (HeLa Kyoto [4]; cell cycle stage: mitosis)
MAAPAPGLISVFSSSQELGAALAQLVAQRAACCLAGARARFALGLSGGSLVSMLARELPAAVAPAGPASLARWTLGFCDERLVPFDHAESTYGLYRTHLLSRLPIPESQVITINPELPVEEAAEDYAKKLRQAFQGDSIPVFDLLILGVGPDGHTCSLFPDHPLLQEREKIVAPISDSPKPPPQRVTLTLPVLNAARTVIFVATGEGKAAVLKRILEDQEENPLPAALVQPHTGKLCWFLDEAAARLLTVPFEKHSTL [PGLS] | 0.254 | 54.8 | 55.2 | 0.237 | -2.51 | -2.63
MAAPAQPKKIVAPTVSQINAEFVTQLACKYWAPHIKKKSPFDIKVIEDIYEKEIVKSRFAIRKIMLLEFSQYLENYLWMNYSPEVSSKAYLMSICCMVNEKFRENVPAWEIFKKKPDHFPFFFKHILKAALAETDGEFSLHEQTVLLLFLDHCFNSLEVDLIRSQVQQLISLPMWMGLQLARLELELKKTPKLRKFWNLIKKNDEKMDPEAREQAYQERRFLSQLIQKFISVLKSVPLSEPVTMDKVHYCERFIELMIDLEALLPTRRWFNTILDDSHLLVHCYLSNLVRREEDGHLFSQLLDMLKFYTGFEINDQTGNALTENEMTTIHYDRITSLQRAAFAHFPELYDFALSNVAEVDTRESLVKFFGPLSSNTLHQVASYLCLLPTLPKNEDTTFDKEFLLELLVSRHERRISQIQQLNQMPLYPTEKIIWDENIVPTEYYSGEGCLALPKLNLQFLTLHDYLLRNFNLFRLESTYEIRQDIEDSVSRMKPWQSEYGGVVFGGWARMAQPIVAFTVVEVAKPNIGENWPTRVRADVTINLNVRDHIKDEWEGLRKHDVCFLITVRPTKPYGTKFDRRRPFIEQVGLVYVRGCEIQGMLDDKGRVIEDGPEPRPNLRGESRTFRVFLDPNQYQQDMTNTIQNGAEDVYETFNIIMRRKPKENNFKAVLETIRNLMNTDCVVPDWLHDIILGYGDPSSAHYSKMPNQIATLDFNDTFLSIEHLKASFPGHNVKVTVEDPALQIPPFRITFPVRSGKGKKRKDADVEDEDTEEAKTLIVEPHVIPNRGPYPYNQPKRNTIQFTHTQIEAIRAGMQPGLTMVVGPPGTGKTDVAVQIISNIYHNFPEQRTLIVTHSNQALNQLFEKIMALDIDERHLLRLGHGEEELETEKDFSRYGRVNYVLARRIELLEEVKRLQKSLGVPGDASYTCETAGYFFLYQVMSRWEEYISKVKNKGSTLPDVTEVSTFFPFHEYFANAPQPIFKGRSYEEDMEIAEGCFRHIKKIFTQLEEFRASELLRSGLDRSKYLLVKEAKIIAMTCTHAALKRHDLVKLGFKYDNILMEEAAQILEIETFIPLLLQNPQDGFSRLKRWIMIGDHHQLPPVIKNMAFQKYSNMEQSLFTRFVRVGVPTVDLDAQGRARASLCNLYNWRYKNLGNLPHVQLLPEFSTANAGLLYDFQLINVEDFQGVGESEPNPYFYQNLGEAEYVVALFMYMCLLGYPADKISILTTYNGQKHLIRDIINRRCGNNPLIGRPNKVTTVDRFQGQQNDYILLSLVRTRAVGHLRDVRRLVVAMSRARLGLYIFARVSLFQNCFELTPAFSQLTARPLHLHIIPTEPFPTTRKNGERPSHEVQIIKNMPQMANFVYNMYMHLIQTTHHYHQTLLQLPPAMVEEGEEVQNQETELETEEEAMTVQADIIPSPTDTSCRQETPAFQTDTTPSETGATSTPEAIPALSETTPTVVGAVSAPAEANTPQDATSAPEETK [AQR] | -0.435 | 48 | 50 | 0.0502 | 0.352 | 2.51
MAAPEEHDSPTEASQPIVEEEETKTFKDLGVTDVLCEACDQLGWTKPTKIQIEAIPLALQGRDIIGLAETGSGKTGAFALPILNALLETPQRLFALVLTPTRELAFQISEQFEALGSSIGVQSAVIVGGIDSMSQSLALAKKPHIIIATPGRLIDHLENTKGFNLRALKYLVMDEADRILNMDFETEVDKILKVIPRDRKTFLFSATMTKKVQKLQRAALKNPVKCAVSSKYQTVEKLQQYYIFIPSKFKDTYLVYILNELAGNSFMIFCSTCNNTQRTALLLRNLGFTAIPLHGQMSQSKRLGSLNKFKAKARSILLATDVASRGLDIPHVDVVVNFDIPTHSKDYIHRVGRTARAGRSGKAITFVTQYDVELFQRIEHLIGKKLPGFPTQDDEVMMLTERVAEAQRFARMELREHGEKKKRSREDAGDNDDTEGAIGVRNKVAGGKMKKRKGR [DDX47] | -1.22 | 50.9 | 51.3 | 0.607 | 0.865 | 1.97
MAAPGAPAEYGYIRTVLGQQILGQLDSSSLALPSEAKLKLAGSSGRGGQTVKSLRIQEQVQQTLARKGRSSVGNGNLHRTSSVPEYVYNLHLVENDFVGGRSPVPKTYDMLKAGTTATYEGRWGRGTAQYSSQKSVEERSLRHPLRRLEISPDSSPERAHYTHSDYQYSQRSQAGHTLHHQESRRAALLVPPRYARSEIVGVSRAGTTSRQRHFDTYHRQYQHGSVSDTVFDSIPANPALLTYPRPGTSRSMGNLLEKENYLTAGLTVGQVRPLVPLQPVTQNRASRSSWHQSSFHSTRTLREAGPSVAVDSSGRRAHLTVGQAAAGGSGNLLTERSTFTDSQLGNADMEMTLERAVSMLEADHMLPSRISAAATFIQHECFQKSEARKRVNQLRGILKLLQLLKVQNEDVQRAVCGALRNLVFEDNDNKLEVAELNGVPRLLQVLKQTRDLETKKQITDHTVNLRSRNGWPGAVAHACNPSTLGGQGGRITRSGVRDQPDQHGLLWNLSSNDKLKNLMITEALLTLTENIIIPFSGWPEGDYPKANGLLDFDIFYNVTGCLRNMSSAGADGRKAMRRCDGLIDSLVHYVRGTIADYQPDDKATENCVCILHNLSYQLEAELPEKYSQNIYIQNRNIQTDNNKSIGCFGSRSRKVKEQYQDVPMPEEKSNPKGVEWLWHSIVIRMYLSLIAKSVRNYTQEASLGALQNLTAGSGPMPTSVAQTVVQKESGLQHTRKMLHVGDPSVKKTAISLLRNLSRNLSLQNEIAKETLPDLVSIIPDTVPSTDLLIETTASACYTLNNIIQNSYQNARDLLNTGGIQKIMAISAGDAYASNKASKAASVLLYSLWAHTELHHAYKKAQFKKTDFVNSRTAKAYHSLKD [PKP2] | -0.953 | 50.7 | 49.9 | 0.0433 | -1.03 | -0.99
MAAPGLRLGAGRLFEMPAVLERLSRYNSTSQAFAEVLRLPKQQLRKLLYPLQEVERFLAPYGRQDLHLRIFDPSPEDIARADNIFTATERNRIDYVSSAVRIDHAPDLPRPEVCFIGRSNVGKSSLIKALFSLAPEVEVRVSKKPGHTKKMNFFKVGKHFTVVDMPGYGFRAPEDFVDMVETYLKERRNLKRTFLLVDSVVGIQKTDNIAIEMCEEFALPYVIVLTKIDKSSKGHLLKQVLQIQKFVNMKTQGCFPQLFPVSAVTFSGIHLLRCFIASVTGSLD [GTPBP8] | 0.0451 | 50.8 | 52.8 | -0.0931 | -0.696 | 0.105
